{
  "source": "paper PMC5558906",
  "binders": {"B1": {"name": "U10 in CA repeats (ssRNA)", "RNA": "GCACACACACACACACACACAUUUUUUUUUUCACACACACACACACACACA"}},
  "test_in_all_cases": "EMSA",
  "key": {"eIF4G1 [1]": {"molecular_target": "T1, eIF4G1 (Saccharomyces cerevisiae, UniProt P39935 1-952)", "T1 sequence": "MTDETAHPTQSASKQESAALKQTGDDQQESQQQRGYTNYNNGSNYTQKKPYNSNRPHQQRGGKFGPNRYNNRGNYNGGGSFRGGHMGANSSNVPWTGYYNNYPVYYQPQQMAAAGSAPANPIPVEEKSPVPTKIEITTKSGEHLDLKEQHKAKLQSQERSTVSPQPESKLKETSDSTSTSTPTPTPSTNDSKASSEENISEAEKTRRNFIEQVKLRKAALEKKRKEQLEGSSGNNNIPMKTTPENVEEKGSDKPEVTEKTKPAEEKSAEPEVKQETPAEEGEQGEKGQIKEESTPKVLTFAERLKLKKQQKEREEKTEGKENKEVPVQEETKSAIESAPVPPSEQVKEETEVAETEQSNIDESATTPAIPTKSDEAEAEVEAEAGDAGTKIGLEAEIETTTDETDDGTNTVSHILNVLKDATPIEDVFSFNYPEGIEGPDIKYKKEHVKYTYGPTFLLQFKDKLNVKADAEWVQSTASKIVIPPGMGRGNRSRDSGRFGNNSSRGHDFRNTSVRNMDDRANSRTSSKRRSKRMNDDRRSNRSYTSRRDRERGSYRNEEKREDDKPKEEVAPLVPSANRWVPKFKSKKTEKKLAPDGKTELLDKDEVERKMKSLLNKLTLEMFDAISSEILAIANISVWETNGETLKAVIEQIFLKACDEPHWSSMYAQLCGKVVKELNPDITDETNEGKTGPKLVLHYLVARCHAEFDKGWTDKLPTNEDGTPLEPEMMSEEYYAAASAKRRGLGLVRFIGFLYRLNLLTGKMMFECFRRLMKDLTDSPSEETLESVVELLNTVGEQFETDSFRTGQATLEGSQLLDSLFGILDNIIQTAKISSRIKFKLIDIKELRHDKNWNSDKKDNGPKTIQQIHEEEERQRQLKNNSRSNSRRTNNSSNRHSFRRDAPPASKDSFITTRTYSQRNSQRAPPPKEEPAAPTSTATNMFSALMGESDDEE"}, "eIF4G1 [2]": {"molecular_target": "T1, eIF4G1", "remark": "listed apart in the source"}, "eIF4G1 [3]": {"molecular_target": "T1, eIF4G1", "remark": "listed apart in the source"}},
  "note": "Read-outs that look alike come from different tables or passages of the source.",
  "data": [
    {"binder": "UUUUUUUUUUUUUUUUUUUUUUUUUUUUUUUUUUUUUUUU (ssRNA)", "note": "[U40]", "values": [
      {"measurement": "binding signal", "setting": "eIF4G1 [1]", "result": 17, "unit": "fold tighter than A40"}
    ]},
    {"binder": "AAAAAAAAAAAAAAAAAAAAAAAAAAAAAAAAAAAAAAAA (ssRNA)", "note": "[A40]", "values": [
      {"measurement": "binding signal", "setting": "eIF4G1 [2]", "result": 17, "unit": "fold weaker than U40"}
    ]},
    {"binder": "B1", "values": [
      {"measurement": "binding result", "setting": "eIF4G1 [3]", "result": "binds"}
    ]}
  ]
}
